# Reference: publication doi:10.1101/2025.06.29.662139 (bioRxiv, 2025)
# Substitutions are numbered along the chain they refer to. In names and notes the source's numbering stands.
# B1: anti-CD33 antibody variant S11 (antibody, V domains shown)
# VH: QVQLVQSGAEVKKPGSSVKVSCKASGGIFSNHRISWVRQAPGQGLEWMGGIIPIFGTANYAQKFQGRVTITADESTSTAFMELSSLRSEDTAVYYCARAWADVFDIWGQGTMVTVSS
# VL: EIVLTQSPLSLPVTPGEPASISCRSSQSLLHSNGYNYLDWYLQKPGQSPQLLIYLGVNSVSGVPDRFSGSGSGTDFTLKISRVEAEDVGVYYCMQALQTPWTFGQGTKVEIK
# B2: anti-CD33 antibody W96F (antibody, V domains shown)
# VH: B1 VH with R33A, A99E, W100F
# VL: B1 VL
# Biological target: human CD33 protein (R&D Systems) (Homo sapiens, UniProt P20138)
# Experiment: SPR
# human CD33 protein (R&D Systems), sequence (P20138 18-259): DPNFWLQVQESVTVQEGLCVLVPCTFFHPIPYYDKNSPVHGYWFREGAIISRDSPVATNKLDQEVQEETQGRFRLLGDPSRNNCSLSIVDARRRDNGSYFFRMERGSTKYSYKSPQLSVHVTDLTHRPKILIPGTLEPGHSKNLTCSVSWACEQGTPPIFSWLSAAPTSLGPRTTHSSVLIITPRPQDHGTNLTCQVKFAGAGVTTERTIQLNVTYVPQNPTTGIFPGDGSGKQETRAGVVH
binder,measurement,value
B1,fold reduction in binding affinity (KD) against the lead candidate,1.4 fold
B2,binding result,no binding
same,fold loss of binding affinity against the parent antibody,> 1000 fold
